According to patent publication US20170056488A1:

Molecular target: HLA-A*02 (human)
Assay: UV ligand exchange, anti-b2m ELISA; exchange yield grade

With VLLRVLIL the peptide exchange yield was 20 to 49%.
